Source: paper PMC5503505 (Nature structural & molecular biology, 2017)

B1: Orc2 (natural protein)
chain: MLNGEDFVEHNDILSSPAKSRNVTPKRVDPHGERQLRRIHSSKKNLLERISLVGNERKNTSPDPALKPKTPSKAPRKRGRPRKIQEELTDRIKKDEKDTISSKKKRKLDKDTSGNVNEESKTSNNKQVMEKTGIKEKREREKIQVATTTYEDNVTPQTDDNFVSNSPEPPEPATPSKKSLTTNHDFTSPLKQIIMNNLKEYKDSTSPGKLTLSRNFTPTPVPKNKKLYQTSETKSASSFLDTFEGYFDQRKIVRTNAKSRHTMSMAPDVTREEFSLVSNFFNENFQKRPRQKLFEIQKKMFPQYWFELTQGFSLLFYGVGSKRNFLEEFAIDYLSPKIAYSQLAYENELQQNKPVNSIPCLILNGYNPSCNYRDVFKEITDLLVPAELTRSETKYWGNHVILQIQKMIDFYKNQPLDIKLILVVHNLDGPSIRKNTFQTMLSFLSVIRQIAIVASTDHIYAPLLWDNMKAQNYNFVFHDISNFEPSTVESTFQDVMKMGKSDTSSGAEGAKYVLQSLTVNSKKMYKLLIETQMQNMGNLSANTGPKRGTQRTGVELKLFNHLCAADFIASNEIALRSMLREFIEHKMANITKNNSGMEIIWVPYTYAELEKLLKTVLNTL

Legend:
[1] = molecular target: T1, Mcm5 (S. cerevisiae, UniProt P29496 1-775); test: cross-linking
T1 sequence: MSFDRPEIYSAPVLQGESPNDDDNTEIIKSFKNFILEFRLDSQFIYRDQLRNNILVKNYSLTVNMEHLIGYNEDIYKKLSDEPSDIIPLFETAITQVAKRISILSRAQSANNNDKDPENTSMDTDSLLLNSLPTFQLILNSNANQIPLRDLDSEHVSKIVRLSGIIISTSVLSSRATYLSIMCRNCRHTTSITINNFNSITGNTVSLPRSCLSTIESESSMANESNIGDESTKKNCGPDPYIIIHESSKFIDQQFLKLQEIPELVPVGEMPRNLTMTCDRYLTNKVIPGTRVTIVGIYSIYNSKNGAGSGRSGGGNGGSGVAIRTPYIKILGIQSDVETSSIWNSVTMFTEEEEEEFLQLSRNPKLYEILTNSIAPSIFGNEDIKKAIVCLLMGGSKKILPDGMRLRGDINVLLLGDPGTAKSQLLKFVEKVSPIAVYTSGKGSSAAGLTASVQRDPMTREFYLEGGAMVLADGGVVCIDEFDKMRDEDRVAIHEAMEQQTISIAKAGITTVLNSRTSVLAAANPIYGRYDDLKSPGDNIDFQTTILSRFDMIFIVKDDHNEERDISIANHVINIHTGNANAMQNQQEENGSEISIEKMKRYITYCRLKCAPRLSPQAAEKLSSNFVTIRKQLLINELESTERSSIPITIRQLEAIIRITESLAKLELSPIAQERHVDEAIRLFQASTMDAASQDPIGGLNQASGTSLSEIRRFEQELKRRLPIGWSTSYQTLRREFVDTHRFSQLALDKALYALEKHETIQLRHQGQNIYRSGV

[2] = molecular target: Mcm3 (S. cerevisiae, UniProt P24279 1-971); test: cryo-EM structure
Sequence of Mcm3 (P24279 whole entry): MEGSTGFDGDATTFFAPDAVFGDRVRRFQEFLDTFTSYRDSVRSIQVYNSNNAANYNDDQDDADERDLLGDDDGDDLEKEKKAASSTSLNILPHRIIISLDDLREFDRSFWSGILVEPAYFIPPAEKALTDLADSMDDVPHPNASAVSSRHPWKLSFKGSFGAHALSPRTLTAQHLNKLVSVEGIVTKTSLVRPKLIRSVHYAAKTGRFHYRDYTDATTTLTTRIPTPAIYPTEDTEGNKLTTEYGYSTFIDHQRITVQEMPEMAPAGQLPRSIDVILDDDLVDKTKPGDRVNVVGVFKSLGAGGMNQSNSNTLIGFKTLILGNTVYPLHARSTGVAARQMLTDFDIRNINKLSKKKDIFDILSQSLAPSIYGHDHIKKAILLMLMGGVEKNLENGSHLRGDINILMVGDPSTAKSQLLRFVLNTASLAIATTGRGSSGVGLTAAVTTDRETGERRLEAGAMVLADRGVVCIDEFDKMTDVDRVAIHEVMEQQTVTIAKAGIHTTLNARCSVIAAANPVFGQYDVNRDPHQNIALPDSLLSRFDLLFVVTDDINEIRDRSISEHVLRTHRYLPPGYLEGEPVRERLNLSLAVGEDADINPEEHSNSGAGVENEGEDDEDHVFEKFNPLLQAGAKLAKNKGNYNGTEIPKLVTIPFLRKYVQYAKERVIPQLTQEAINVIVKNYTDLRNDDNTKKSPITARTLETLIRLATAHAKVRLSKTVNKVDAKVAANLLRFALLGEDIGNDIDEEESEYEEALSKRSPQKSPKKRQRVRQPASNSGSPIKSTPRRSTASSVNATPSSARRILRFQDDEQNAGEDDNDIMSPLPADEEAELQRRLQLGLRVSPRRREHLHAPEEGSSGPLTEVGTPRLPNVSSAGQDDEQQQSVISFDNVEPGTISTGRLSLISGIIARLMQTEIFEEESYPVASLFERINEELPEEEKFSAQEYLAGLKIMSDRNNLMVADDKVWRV

[3] = molecular target: T2, Orc1 (S. cerevisiae, UniProt P54784 1-914); test: cryo-EM structure
T2 sequence: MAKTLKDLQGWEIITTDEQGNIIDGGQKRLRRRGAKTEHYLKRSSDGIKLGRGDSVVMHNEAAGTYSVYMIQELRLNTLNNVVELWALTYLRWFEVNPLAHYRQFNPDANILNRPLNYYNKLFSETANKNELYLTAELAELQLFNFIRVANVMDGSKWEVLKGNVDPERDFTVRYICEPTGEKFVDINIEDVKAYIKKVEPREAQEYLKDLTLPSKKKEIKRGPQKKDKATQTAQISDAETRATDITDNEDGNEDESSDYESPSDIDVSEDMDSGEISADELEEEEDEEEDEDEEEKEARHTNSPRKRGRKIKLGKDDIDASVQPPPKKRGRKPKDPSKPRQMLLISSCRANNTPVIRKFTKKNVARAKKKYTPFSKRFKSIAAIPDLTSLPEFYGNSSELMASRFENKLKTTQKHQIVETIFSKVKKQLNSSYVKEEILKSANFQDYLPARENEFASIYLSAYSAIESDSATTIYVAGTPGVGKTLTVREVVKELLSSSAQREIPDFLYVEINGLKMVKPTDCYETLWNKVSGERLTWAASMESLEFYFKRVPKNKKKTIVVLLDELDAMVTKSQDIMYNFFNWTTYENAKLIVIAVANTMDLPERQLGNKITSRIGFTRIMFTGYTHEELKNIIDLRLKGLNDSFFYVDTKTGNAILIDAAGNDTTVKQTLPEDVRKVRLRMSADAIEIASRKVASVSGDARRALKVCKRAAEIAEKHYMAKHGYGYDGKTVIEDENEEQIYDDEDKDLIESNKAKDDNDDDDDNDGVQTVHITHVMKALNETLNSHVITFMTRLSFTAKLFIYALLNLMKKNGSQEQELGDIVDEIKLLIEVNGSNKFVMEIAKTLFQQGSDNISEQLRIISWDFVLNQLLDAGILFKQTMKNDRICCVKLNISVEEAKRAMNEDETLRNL

[4] = molecular target: T3, Mcm7 (S. cerevisiae, UniProt P38132 1-845); test: cryo-EM structure
T3 sequence: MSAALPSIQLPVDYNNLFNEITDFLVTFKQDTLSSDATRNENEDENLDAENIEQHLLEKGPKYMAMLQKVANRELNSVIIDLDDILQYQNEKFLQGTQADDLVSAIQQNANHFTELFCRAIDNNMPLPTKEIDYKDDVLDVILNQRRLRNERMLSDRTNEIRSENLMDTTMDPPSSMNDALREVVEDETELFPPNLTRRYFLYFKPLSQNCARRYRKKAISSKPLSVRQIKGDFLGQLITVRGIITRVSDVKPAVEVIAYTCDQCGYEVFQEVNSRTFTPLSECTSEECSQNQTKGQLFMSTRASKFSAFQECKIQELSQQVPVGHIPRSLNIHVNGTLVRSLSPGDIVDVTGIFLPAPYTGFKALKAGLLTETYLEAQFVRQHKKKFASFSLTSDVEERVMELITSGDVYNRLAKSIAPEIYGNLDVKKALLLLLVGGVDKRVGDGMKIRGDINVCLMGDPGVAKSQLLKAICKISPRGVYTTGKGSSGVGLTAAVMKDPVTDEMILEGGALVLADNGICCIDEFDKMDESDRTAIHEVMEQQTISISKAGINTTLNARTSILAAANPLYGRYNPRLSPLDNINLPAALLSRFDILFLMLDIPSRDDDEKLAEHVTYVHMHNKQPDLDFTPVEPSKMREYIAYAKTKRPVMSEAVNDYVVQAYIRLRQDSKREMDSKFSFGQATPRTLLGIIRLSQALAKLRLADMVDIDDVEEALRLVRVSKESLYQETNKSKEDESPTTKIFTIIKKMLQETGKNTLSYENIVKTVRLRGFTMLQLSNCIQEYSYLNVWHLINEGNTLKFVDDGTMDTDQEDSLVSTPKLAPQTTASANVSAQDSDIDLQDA

[5] = molecular target: B1; test: cross-linking
[6] = molecular target: T4, Cdt1 (S. cerevisiae, UniProt P47112 1-604); test: cross-linking
T4 sequence: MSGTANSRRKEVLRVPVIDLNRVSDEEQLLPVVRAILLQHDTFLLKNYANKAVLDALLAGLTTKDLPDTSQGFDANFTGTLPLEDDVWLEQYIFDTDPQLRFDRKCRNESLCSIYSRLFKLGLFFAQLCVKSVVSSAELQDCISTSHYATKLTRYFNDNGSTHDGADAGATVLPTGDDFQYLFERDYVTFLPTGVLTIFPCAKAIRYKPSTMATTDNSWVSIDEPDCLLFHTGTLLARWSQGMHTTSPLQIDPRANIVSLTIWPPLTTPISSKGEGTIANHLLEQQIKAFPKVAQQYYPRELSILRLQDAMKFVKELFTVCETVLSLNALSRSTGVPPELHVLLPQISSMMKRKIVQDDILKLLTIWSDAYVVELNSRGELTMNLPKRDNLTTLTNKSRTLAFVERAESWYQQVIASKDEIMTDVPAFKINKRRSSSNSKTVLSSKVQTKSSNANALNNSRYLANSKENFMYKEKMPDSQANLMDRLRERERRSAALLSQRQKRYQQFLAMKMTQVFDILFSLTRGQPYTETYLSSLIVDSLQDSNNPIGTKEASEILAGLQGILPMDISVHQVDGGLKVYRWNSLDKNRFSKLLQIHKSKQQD

B1: binds [1]; binds [2].

B2: Cdc6 (natural protein)
chain: MSAIPITPTKRIRRNLFDDAPATPPRPLKRKKLQFTDVTPESSPEKLQFGSQSIFLRTKALLQKSSELVNLNSSDGALPARTAEYEQVMNFLAKAISEHRSDSLYITGPPGTGKTAQLDMIIRQKFQSLPLSLSTPRSKDVLRHTNPNLQNLSWFELPDGRLESVAVTSINCISLGEPSSIFQKIFDSFQDLNGPTLQIKNMQHLQKFLEPYHKKTTFVVVLDEMDRLLHANTSETQSVRTILELFLLAKLPTVSFVLIGMANSLDMKDRFLSRLNLDRGLLPQTIVFQPYTAEQMYEIVIQKMSSLPTIIFQPMAIKFAAKKCAGNTGDLRKLFDVLRGSIEIYELEKRFLLSPTRGSLNSAQVPLTPTTSPVKKSYPEPQGKIGLNYIAKVFSKFVNNNSTRTRIAKLNIQQKLILCTIIQSLKLNSDATIDESFDHYIKAITKTDTLAPLQRNEFLEICTILETCGLVSIKKTKCKGKTKRFVDKIDVDLDMREFYDEMTKISILKPFLH
B2: binds [3]; binds [4].

B3: Orc6 (natural protein)
chain: MSMQQVQHCVAEVLRLDPQEKPDWSSGYLKKLTNATSILYNTSLNKVMLKQDEEVARCHICAYIASQKMNEKHMPDLCYYIDSIPLEPKKAKHLMNLFRQSLSNSSPMKQFAWTPSPKKNKRSPVKNGGRFTSSDPKELRNQLFGTPTKVRKSQNNDSFVIPELPPMQTNESPSITRRKLAFEEDEDEDEEEPGNDGLSLKSHSNKSITGTRNVDSDEYENHESDPTSEEEPLGVQESRSGRTKQNKAVGKPQSELKTAKALRKRGRIPNSLLVKKYCKMTTEEIIRLCNDFELPREVAYKIVDEYNINASRLVCPWQLVCGLVLNCTFIVFNERRRKDPRIDHFIVSKMCSLMLTSKVDDVIECVKLVKELIIGEKWFRDLQIRYDDFDGIRYDEIIFRKLGSMLQTTNILVTDDQYNIWKKRIEMDLALTEPL
B3: binds [5]; binds [6].
